Reference: US20200087347 (published 2020)
Where two headings read alike, the source gives them in different places. [ ]: non-standard residue; d: D form. NMeK = CN[C@@H](CCCCN)C(=O)O

T1: integrin αvβ6 (human, UniProt P06756)
T1 chain 1: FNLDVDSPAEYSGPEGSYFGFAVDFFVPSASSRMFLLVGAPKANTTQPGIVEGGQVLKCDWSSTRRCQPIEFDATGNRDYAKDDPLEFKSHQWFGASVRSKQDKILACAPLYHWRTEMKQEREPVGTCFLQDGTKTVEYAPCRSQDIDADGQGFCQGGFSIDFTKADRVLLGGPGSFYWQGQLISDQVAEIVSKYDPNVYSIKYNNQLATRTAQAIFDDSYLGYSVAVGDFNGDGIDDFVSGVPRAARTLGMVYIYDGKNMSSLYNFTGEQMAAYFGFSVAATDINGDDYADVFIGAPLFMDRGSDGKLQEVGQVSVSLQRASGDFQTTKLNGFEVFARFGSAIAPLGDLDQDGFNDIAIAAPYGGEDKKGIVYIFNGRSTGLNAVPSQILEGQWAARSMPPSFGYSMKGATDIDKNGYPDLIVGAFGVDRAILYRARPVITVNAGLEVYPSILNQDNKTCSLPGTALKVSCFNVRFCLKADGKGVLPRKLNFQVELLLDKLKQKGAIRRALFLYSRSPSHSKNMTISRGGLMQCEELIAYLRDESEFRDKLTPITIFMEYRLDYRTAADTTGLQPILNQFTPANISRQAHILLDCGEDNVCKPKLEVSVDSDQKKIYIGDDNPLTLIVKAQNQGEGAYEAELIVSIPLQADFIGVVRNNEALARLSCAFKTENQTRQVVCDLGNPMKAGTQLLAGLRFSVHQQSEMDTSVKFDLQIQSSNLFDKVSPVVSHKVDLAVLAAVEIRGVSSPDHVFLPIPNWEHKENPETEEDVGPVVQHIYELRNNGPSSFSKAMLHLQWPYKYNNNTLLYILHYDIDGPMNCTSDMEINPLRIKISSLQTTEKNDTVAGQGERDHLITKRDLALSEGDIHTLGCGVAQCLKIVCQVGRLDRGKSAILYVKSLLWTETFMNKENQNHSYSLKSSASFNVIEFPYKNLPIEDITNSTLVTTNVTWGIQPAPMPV
T1 chain 2: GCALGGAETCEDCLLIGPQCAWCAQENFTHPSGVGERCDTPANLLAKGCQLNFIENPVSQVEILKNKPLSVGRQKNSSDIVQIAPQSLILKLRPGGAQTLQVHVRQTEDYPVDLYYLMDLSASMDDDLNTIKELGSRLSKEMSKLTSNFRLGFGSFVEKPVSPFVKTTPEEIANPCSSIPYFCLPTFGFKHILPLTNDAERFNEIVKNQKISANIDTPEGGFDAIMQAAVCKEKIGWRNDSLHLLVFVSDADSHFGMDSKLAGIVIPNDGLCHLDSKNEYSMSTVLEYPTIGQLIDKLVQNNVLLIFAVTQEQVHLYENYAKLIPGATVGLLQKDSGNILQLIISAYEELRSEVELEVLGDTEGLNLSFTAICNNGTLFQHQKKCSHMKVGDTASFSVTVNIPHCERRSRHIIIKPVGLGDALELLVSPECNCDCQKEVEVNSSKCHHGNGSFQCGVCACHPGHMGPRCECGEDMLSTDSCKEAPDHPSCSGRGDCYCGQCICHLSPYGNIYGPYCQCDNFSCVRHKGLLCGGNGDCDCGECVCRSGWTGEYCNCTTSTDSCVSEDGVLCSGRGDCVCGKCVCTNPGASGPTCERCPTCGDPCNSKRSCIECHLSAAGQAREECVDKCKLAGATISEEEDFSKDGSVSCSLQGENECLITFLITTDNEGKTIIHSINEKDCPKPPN

T2: integrin αvβ5 (human, UniProt P06756)
T2 chain 1: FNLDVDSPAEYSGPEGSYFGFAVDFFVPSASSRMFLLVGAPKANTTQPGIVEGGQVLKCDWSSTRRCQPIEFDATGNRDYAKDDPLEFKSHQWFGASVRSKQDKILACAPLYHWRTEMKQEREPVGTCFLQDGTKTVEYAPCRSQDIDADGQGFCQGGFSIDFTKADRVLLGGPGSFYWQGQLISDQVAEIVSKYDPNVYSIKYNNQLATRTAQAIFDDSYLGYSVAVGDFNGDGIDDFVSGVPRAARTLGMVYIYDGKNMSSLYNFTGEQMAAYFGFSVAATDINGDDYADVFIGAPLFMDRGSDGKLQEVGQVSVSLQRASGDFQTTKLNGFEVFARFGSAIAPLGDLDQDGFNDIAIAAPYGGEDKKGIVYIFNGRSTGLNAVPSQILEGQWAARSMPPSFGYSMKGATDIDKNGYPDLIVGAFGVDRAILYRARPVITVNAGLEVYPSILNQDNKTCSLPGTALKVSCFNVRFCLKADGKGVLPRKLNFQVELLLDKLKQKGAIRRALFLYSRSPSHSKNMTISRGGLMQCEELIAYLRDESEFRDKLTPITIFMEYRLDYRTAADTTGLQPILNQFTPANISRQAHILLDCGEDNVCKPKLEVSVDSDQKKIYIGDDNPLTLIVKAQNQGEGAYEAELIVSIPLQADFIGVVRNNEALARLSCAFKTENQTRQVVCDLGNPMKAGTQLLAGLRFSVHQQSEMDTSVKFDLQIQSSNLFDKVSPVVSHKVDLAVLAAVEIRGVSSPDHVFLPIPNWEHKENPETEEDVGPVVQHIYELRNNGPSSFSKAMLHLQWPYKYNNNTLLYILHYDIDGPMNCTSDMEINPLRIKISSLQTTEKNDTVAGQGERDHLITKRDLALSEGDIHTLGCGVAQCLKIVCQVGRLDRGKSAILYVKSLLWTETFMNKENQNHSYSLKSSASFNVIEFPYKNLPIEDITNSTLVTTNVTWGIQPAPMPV
T2 chain 2: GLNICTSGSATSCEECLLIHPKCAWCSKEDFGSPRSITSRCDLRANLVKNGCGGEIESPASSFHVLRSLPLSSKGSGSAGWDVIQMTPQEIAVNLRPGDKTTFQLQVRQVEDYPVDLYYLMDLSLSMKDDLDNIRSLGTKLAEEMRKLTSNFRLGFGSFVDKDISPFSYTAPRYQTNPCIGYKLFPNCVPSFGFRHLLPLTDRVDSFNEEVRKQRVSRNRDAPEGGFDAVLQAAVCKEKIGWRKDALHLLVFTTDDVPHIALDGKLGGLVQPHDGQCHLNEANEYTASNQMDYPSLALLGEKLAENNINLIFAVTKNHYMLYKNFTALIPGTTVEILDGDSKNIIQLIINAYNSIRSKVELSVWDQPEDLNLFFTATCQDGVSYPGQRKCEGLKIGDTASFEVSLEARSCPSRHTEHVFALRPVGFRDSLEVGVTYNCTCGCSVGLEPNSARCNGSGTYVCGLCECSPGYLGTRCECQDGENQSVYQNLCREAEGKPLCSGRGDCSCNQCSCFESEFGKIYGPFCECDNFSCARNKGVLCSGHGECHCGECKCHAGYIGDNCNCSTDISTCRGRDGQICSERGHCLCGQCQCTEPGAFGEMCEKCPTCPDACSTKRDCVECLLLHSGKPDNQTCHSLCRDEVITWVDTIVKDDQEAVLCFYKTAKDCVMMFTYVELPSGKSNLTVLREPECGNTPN

T3: integrin αvβ3 (human, UniProt P06756)
T3 chain 1: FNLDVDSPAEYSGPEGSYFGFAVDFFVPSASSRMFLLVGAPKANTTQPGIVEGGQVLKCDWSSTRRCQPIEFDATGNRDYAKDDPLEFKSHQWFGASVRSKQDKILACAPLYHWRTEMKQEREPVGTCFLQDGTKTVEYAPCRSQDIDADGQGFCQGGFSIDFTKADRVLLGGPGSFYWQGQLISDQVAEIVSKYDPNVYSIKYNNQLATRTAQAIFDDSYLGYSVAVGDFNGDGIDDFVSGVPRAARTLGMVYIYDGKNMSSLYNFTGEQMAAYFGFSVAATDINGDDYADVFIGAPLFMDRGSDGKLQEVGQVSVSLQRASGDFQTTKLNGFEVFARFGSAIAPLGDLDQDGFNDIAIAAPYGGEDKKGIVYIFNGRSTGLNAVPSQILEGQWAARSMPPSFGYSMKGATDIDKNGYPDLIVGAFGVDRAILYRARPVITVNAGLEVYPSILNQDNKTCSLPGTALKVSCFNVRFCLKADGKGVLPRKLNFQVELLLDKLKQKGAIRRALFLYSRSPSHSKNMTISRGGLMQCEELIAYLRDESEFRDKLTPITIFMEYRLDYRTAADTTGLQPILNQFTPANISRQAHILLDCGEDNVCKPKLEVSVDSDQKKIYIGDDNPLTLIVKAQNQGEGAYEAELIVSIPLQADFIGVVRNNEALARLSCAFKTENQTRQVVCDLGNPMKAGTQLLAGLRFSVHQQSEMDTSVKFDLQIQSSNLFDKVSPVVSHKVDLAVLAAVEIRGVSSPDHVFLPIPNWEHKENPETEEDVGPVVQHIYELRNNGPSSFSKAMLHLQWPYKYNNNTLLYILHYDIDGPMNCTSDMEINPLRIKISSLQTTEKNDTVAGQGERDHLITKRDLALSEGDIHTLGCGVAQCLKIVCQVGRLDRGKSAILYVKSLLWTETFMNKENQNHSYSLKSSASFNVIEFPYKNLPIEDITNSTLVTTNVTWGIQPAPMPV
T3 chain 2: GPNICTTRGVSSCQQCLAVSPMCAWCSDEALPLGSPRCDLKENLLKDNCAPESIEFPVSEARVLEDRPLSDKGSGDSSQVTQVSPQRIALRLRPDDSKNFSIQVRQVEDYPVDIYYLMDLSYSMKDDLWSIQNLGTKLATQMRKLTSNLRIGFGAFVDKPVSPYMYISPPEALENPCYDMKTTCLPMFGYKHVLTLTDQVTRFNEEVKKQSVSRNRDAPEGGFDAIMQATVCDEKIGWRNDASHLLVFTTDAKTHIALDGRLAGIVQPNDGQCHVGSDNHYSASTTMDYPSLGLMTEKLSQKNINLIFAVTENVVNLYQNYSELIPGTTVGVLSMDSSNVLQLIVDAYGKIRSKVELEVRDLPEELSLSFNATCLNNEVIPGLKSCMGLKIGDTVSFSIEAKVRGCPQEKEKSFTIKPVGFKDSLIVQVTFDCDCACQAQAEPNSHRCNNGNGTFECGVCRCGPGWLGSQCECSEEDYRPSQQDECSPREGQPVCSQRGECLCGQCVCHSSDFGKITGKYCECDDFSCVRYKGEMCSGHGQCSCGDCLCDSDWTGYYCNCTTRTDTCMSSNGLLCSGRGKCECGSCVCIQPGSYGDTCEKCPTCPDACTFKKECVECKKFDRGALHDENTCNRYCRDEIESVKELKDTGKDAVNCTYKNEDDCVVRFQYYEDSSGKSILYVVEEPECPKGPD

T4: integrin αvβ8 (human, UniProt P06756)
T4 chain 1: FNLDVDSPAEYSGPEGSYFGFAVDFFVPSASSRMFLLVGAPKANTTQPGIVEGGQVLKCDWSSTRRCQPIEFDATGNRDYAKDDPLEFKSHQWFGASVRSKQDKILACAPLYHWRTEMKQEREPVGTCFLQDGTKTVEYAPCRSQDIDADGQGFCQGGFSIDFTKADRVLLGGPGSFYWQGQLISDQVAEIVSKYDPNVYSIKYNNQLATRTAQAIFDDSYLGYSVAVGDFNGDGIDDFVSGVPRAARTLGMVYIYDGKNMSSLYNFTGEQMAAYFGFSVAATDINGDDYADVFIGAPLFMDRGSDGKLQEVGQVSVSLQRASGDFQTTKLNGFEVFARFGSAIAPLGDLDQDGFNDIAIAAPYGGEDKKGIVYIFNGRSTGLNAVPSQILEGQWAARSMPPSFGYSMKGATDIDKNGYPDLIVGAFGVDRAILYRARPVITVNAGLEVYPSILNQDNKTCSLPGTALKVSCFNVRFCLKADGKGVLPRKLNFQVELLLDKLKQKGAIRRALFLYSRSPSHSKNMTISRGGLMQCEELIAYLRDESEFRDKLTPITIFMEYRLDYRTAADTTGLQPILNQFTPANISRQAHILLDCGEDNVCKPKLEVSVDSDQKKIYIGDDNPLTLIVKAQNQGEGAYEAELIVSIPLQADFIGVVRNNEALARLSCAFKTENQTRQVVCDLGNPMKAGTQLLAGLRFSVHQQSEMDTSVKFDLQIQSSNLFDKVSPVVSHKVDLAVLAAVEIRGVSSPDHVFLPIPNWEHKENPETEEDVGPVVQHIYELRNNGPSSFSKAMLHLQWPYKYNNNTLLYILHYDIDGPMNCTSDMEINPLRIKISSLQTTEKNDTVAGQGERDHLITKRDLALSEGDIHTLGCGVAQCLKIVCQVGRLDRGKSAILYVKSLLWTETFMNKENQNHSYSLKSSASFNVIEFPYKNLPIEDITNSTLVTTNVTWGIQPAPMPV
T4 chain 2: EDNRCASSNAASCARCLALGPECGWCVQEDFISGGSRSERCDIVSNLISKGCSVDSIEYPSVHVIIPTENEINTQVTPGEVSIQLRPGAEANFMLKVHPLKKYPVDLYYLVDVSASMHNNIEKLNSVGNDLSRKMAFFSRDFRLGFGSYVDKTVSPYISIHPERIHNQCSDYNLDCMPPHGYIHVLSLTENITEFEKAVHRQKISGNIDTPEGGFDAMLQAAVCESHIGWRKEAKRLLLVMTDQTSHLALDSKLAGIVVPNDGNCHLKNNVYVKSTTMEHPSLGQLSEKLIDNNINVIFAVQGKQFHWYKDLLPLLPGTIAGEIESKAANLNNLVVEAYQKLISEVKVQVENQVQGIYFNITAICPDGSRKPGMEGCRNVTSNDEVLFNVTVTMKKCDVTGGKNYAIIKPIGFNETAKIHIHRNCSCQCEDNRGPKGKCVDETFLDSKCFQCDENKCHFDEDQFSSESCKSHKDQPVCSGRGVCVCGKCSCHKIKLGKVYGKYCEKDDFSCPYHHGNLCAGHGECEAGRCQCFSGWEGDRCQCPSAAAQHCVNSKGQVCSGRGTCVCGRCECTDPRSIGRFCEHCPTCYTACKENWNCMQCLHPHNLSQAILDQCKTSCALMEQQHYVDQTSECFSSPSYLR


Legend:
Assay in all cases: competition
[1] = molecular target: T1, integrin αvβ6
[2] = molecular target: T2, integrin αvβ5
[3] = molecular target: T3, integrin αvβ3
[4] = molecular target: T4, integrin αvβ8
[5] = molecular target: T5, integrin αIIbβ3 (human, UniProt P08514)
[6] = molecular target: T6, integrin α5β1 (human, UniProt P08648)
[7] = molecular target: T6, integrin α5β1; remark: listed apart in the source
[8] = molecular target: T5, integrin αIIbβ3; remark: listed apart in the source

T6 sequence (P08648 42-1049, chain 1 of 2): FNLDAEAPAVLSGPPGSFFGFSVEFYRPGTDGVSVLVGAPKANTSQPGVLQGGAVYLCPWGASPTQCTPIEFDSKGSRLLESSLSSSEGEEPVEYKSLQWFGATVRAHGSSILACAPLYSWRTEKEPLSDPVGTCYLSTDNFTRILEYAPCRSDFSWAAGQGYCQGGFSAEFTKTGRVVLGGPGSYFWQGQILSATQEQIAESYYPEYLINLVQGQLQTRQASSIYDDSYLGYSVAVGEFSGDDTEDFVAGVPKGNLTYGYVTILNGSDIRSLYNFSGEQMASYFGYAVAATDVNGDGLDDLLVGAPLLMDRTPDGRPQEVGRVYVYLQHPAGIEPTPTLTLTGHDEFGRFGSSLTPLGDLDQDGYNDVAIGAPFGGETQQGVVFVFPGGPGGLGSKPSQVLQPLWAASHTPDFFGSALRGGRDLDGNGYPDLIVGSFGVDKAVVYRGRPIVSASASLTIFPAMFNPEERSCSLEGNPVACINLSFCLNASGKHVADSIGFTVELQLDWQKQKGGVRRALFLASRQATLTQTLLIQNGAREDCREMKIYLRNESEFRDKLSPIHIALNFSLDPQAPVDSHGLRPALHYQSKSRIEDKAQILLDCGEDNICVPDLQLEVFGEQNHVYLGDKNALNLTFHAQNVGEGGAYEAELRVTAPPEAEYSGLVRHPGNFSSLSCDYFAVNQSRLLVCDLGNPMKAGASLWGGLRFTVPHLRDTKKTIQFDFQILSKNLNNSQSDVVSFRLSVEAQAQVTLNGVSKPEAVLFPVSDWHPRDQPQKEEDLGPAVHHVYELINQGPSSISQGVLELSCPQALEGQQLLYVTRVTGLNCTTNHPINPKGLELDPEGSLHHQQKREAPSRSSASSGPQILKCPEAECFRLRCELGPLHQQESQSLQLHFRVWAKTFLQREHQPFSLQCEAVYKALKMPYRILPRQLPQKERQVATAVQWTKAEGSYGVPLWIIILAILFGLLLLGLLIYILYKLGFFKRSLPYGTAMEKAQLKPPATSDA
T6 sequence (chain, as listed by the source, chain 2 of 2): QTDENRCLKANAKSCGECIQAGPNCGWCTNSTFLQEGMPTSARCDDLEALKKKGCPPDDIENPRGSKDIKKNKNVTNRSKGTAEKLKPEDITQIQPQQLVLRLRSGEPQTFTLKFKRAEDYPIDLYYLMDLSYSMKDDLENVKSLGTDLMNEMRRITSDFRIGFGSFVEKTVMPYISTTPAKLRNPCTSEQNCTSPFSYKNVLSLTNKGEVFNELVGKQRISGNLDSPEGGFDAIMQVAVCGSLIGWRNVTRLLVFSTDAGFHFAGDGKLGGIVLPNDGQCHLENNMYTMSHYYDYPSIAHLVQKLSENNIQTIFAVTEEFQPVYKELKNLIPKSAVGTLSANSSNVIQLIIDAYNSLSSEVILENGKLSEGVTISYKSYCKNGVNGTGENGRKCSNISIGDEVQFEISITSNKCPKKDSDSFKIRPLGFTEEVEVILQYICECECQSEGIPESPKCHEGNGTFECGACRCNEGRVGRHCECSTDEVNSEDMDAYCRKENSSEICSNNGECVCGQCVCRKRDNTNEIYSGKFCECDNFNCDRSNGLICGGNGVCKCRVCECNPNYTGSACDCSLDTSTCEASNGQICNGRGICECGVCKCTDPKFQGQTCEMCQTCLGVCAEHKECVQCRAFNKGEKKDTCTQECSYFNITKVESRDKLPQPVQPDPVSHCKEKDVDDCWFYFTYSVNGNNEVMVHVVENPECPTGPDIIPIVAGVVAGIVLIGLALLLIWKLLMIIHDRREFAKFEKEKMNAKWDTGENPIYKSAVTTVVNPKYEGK

Binder | IC50 [1] [nM] | IC50 [2] [nM] | IC50 [3] [nM] | IC50 [4] [nM] | IC50 [5] [nM] | IC50 [6] [nM] | IC50 [7] [nM] | IC50 [8] [nM]
cyclo(RGDL[dP][NMeK]GL) (SMILES CC(C)C[C@@H]1NC(=O)CNC(=O)[C@H](CCCCN)N(C)C(=O)[C@H]2CCCN2C(=O)[C@H](CC(C)C)NC(=O)[C@H](CC(=O)O)NC(=O)CNC(=O)[C@H](CCCNC(=N)N)NC1=O) [Compound 8] | 201 | > 1000 | > 1000 | 6.5 | > 1000 | > 1000 |  | 
cyclo(RGD[dF]K) [Compound 12 (Table 3) c(RGDfK)] |  |  |  |  |  |  | 141 | > 10000
